# Measurements published in US20230057987A1 (published 2023).
# T1: CT45 (CT45A1, A2, A3, A5 to A10); CT45-IP peptide on HLA-A*02:01 (human)
# T1 peptide: KIFEMLEGV
# T2: similar peptide SP-05-0006, source protein not stated peptide on HLA-A*02:01 (human)
# T2 peptide: KIAELLENV
# T3: similar peptide SP-05-0008, source protein not stated peptide on HLA-A*02:01 (human)
# T3 peptide: KILDELEKV
# T4: similar peptide SP-05-0005, source protein not stated peptide on HLA-A*02:01 (human)
# T4 peptide: KIEEFLEAV
# T5: similar peptide SP-05-0009, source protein not stated peptide on HLA-A*02:01 (human)
# T5 peptide: KIIDLLPKV
# T6: similar peptide SP-05-0007, source protein not stated peptide on HLA-A*02:01 (human)
# T6 peptide: KIFPALCTV
# T7: similar peptide SP-05-0003, source protein not stated peptide on HLA-A*02:01 (human)
# T7 peptide: KVTEMLVNV
# T8: CT45-IP alanine variant, position 6 peptide on HLA-A*02:01 (human)
# T8 peptide: KIFEMAEGV
# T9: similar peptide SP-05-0010, source protein not stated peptide on HLA-A*02:01 (human)
# T9 peptide: RIFETVNSV
# T10: CT45-IP alanine variant, position 7 peptide on HLA-A*02:01 (human)
# T10 peptide: KIFEMLAGV
# T11: similar peptide SP-05-0004, source protein not stated peptide on HLA-A*02:01 (human)
# T11 peptide: KIWEWLVGV
# T12: similar peptide SP-05-0002, source protein not stated peptide on HLA-A*02:01 (human)
# T12 peptide: KIFSGLLKV
# T13: similar peptide SP-05-0001, source protein not stated peptide on HLA-A*02:01 (human)
# T13 peptide: HIMEHLEGV
# T14: CT45-IP alanine variant, position 8 peptide on HLA-A*02:01 (human)
# T14 peptide: KIFEMLEAV
# T15: CT45-IP alanine variant, position 1 peptide on HLA-A*02:01 (human)
# T15 peptide: AIFEMLEGV
# T16: CT45-IP alanine variant, position 3 peptide on HLA-A*02:01 (human)
# T16 peptide: KIAEMLEGV
# T17: CT45-IP alanine variant, position 4 peptide on HLA-A*02:01 (human)
# T17 peptide: KIFAMLEGV
# B1: TCR-14 (TCR, V domains shown)
# Valpha: QKITQTQPGMFVQEKEAVTLDCTYDTSDQSYGLFWYKQPSSGEMIFLIYQGSYDEQNATEGRYSLNFQKARKSANLVISASQLGDSAMYFCAINGLPGSARQLTFGSGTQLTVLP
# Vbeta: GVAQSPRYKIIEKRQSVAFWCNPISGHATLYWYQQILGQGPKLLIQFQNNGVVDDSQLPKDRFSAERLKGVDSTLKIQPAKLEDSAVYLCASSRFVATGTSPLHFGNGTRLTVT
# B2: TCR-8 (TCR, V domains shown)
# Valpha: QKVTQAQTEISVVEKEDVTLDCVYETRDTTYYLFWYKQPPSGELVFLIRRNSFDEQNEISGRYSWNFQKSTSSFNFTITASQVVDSAVYFCALSGRGSGTYKYIFGTGTRLKVLA
# Vbeta: GVIQSPRHLIKEKRETATLKCYPIPRHDTVYWYQQGPGQDPQFLISFYEKMQSDKGSIPDRFSAQQFSDYHSELNMSSLELGDSALYFCASSAGTSYNEQFFGPGTRLTVL
# Key:
# [1] = biological target: CT45-IP-HLA-A*02 dextramer (human); test: flow cytometry, dextramer staining of TCR-mRNA electroporated T cells, gated on CD3+
# [2] = biological target: T1, CT45 (CT45A1, A2, A3, A5 to A10); …; test: luciferase release, 24 h, 1:1; CD8+ T cells with TCR mRNA, T2 cells with titrated peptide; full-length, on cells
# [3] = biological target: T2, similar peptide SP-05-0006, source …; test: killing
# [4] = biological target: T3, similar peptide SP-05-0008, source …; test: killing
# [5] = biological target: T4, similar peptide SP-05-0005, source …; test: killing
# [6] = biological target: T5, similar peptide SP-05-0009, source …; test: killing
# [7] = biological target: T6, similar peptide SP-05-0007, source …; test: killing
# [8] = biological target: T7, similar peptide SP-05-0003, source …; test: killing
# [9] = biological target: T8, CT45-IP alanine variant, position 6 …; test: killing
# [10] = biological target: T9, similar peptide SP-05-0010, source …; test: killing
# [11] = biological target: T10, CT45-IP alanine variant, position 7 …; test: killing
# [12] = biological target: T11, similar peptide SP-05-0004, source …; test: killing
# [13] = biological target: T12, similar peptide SP-05-0002, source …; test: killing
# [14] = biological target: T13, similar peptide SP-05-0001, source …; test: killing
# [15] = biological target: T14, CT45-IP alanine variant, position 8 …; test: killing
# [16] = biological target: CT45-IP antigenic peptide (…) in complex with HLA-A*02 presented on cells (peptide-loaded T2 cells; NCIH1703 and A375 tumor cells) (human); test: cell-based or functional assay
# [17] = biological target: T1, CT45 (CT45A1, A2, A3, A5 to A10); …; test: CT45-IP-HLA-A*02 dextramer on T cells with TCR mRNA; TCR found by tetramer sorting; full-length, on cells
# [18] = biological target: T15, CT45-IP alanine variant, position 1 …; test: killing
# [19] = biological target: T16, CT45-IP alanine variant, position 3 …; test: killing
# [20] = biological target: T17, CT45-IP alanine variant, position 4 …; test: killing
Binder,"surface expression, % positive events by CT45-IP-HLA-A2*02 dextramer staining [1]",EC50 of peptide [2],binding result [3],binding result [4],binding result [5],binding result [6],binding result [7],binding result [8],binding result [9],binding result [10],binding result [11],binding result [12],binding result [13],binding result [14],binding result [15],"EC50, half maximal killing capacity (functional avidity; CT45-IP peptide titration on T2 cells, luciferase release) [16]",dextramer-positive events [17],binding result [18],binding result [19],binding result [20]
B1,11.6%,17.7 nM,no recognition,no recognition,no recognition,no recognition,no recognition,no recognition,recognises,no recognition,recognises,no recognition,no recognition,no recognition,recognises,17.7 nM,11.6%,,,
B2,60.7%,6.52 nM,no recognition,no recognition,no recognition,no recognition,no recognition,no recognition,recognises,no recognition,,no recognition,no recognition,no recognition,recognises,6.52 nM,60.7%,recognises,recognises,recognises
